We go through four substances from patent publication US5914254.

For one experiment, the target named is 125I-radiolabeled IGF-I. Put plainly: dot blot of serial dilutions of crude soluble fractions probed with 125I-IGF-I; tells of the amount of active protein, not of affinity.
Experiment [1] concerns the target native dsbA (with leader)-biotinylation peptide (pDM25453) (E. coli) (UniProt P0AEG4).

Take “DsbA-ubiquitin-IGFBP-3 fusion (pDM15427) (from UniProt P0AEG4)”: in the experiment with 125I-radiolabeled IGF-I, the fold increase in the recovery of bioactive IGFBP-3 (IGF-I binding activity of the crude extract, against the ubiquitin-IGFBP-3 fusion) came to 16 fold.
Take “E. coli DsbA expressed with its leader sequence (pYZ9205) (from UniProt P0AEG4) (enzyme)”: the Oxidoreductase Activity of DsbA, Activity (U/min-mg), TEX fraction in the experiment with insulin substrate was determined as 0.089 U/min-mg.
“E. coli biotin holoenzyme synthetase (from UniProt P06709)” came in with an efficiency of in vivo biotinylation of the Ni-NTA purified proteins of pDM25450 and pDM25453 in experiment [1] of less than 10 fold.
In the experiment with insulin substrate, “leaderless E. coli DsbA (pYZ9206) (from UniProt P0AEG4) (enzyme)” had an Oxidoreductase Activity of DsbA, Activity (U/min-mg), TEX fraction of 0.1 U/min-mg.
